According to PMC9256709:

Molecular target: AGL6 fused to YFP or CFP (Arabidopsis thaliana) (UniProt P29386)
Test: FRET or BRET; in vivo FRET on the FYL1-AGL6-AGL6-AGL15 tetramer: one CFP and one YFP fusion co-expressed with the unlabeled other members in tobacco leaf cells; steady-state FRET efficiency in nuclei

UniProt P29386, sequence (P29386 whole entry, the tested form may be a part): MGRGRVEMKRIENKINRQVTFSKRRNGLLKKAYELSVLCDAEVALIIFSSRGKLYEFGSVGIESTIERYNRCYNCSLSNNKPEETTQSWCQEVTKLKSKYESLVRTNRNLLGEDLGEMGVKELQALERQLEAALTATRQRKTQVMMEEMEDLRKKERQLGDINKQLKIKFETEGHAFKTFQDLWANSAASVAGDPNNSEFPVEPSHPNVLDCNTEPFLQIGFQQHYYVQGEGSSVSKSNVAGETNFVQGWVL

FRET efficiency (AGL6:CFP/FYL1:YFP, unlabeled AGL15 co-expressed): 32%
Substance: FYF-like 1 (FYL1/AGL71) fused to CFP or YFP (from UniProt Q9LT93 1-207) (natural protein)
